This data set addresses GFP-SAPwt (SAP domain of SAF-A) (UniProt Q00839 8-42). Nature of the data set: EMSA. Background: A gel shift assay detects complexes by their altered migration in electrophoresis.

Sequence of GFP-SAPwt (SAP domain of SAF-A) (Q00839 8-42): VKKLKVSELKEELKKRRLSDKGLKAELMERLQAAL

B1: AT-rich SAR DNA (dsDNA)
DNA 1: AATTCAGAAAATAATAAAATAAAACTAGCTATTTTATATTTTTTC
DNA 2: GAAAAAATATAAAATAGCTAGTTTTATTTTATTATTTTCTGAATT
What is called Kd is the free concentration of one partner at which half of the binding sites on the other are occupied at equilibrium, for simple one-to-one binding. Low readings indicate a tighter complex, high ones a looser complex. Take B1: the Kd was determined as 16.5 µM.
